From a protein production outcome set (Wang et al. 2014) come the findings set out here.

This data set can be described thus: label from the status in PepcDB records.

With “MQRGSRQLYLGDPATDKLQVPEMPMQVLTAFVPGMEVAISAISSYLSTKKMSEGGAGPLLQKRRPNTRKLWSEGRVQPRPFCVLSGLAPPRSRPGPWGPFKAASWPAGTCFAPSDAAEVAASPLRRRGDCWEGRRDGGSETSSRSRIRVKRDRSKSQSRTKAEGAGRRGPVGPGDPVRPDGEKRLQARRPPAPPLASTDRKTMATMVLPREEKLSQDEIVLGTKAVIQGLETLRGEHRALLAPLASHEAGEAEPGSQERCLLLRRSLEAIELGLGEAQVILALSSHLGAVESEKQKLRAQVRRLVQENQWLREELAGTQQKLQRSEQAVAQLEEEKQHLLFMSQIRKLDEDASPNEEKGDVPKDSLDDLFPNEDEQSPAPSPGGGDVAAQHGGYEIPARLRTLHNLVIQYASQGRYEVAVPLCKQALEDLEKTSGHDHPDVATMLNILALVYRDQNKYKDAAHLLNDALAIREKTLGKDHPAVAATLNNLAVLYGKRGKYKEAEPLCKRALEIREKVLGKFHPDVAKQLSNLALLCQNQGKAEEVEYYYRRALEIYATRLGPDDPNVAKTKNNLASCYLKQGKYQDAETLYKEILTRAHEKEFGSVNGENKPIWMHAEEREESKDKRRDSAPYGEYGSWYKACKVDSPTVNTTLRSLGALYRRQGKLEAAHTLEDCASRSRKQGLDPASQTKVVELLKDGSGGRGDRRGSRDVAGGAGPRSESDLEESGPAAEWSGDGSGSLRRSGSFGKLRDALRRSSEMLVRKLQGGGPQEPPNSRMKRASSLNFLNKSVEEPVQPGGTGLSDSRTLSSSSMDLSRRSSLVG”, the protein production entry is given as “failed”.
Next, “MQRIMVIGGPGSGKSTLGRKLGARLGLPVVHMDPIYWLGDWVERDKAEAMRMAKEVADGSQWVFEGNHFASMAYRAERADLIVFLDMPRVLRMWRILWRSLRYYGRTRPDMGPNCPERFNRAFLKFCWTYDREGRLRALGFVDDWRDRRRVRILTSRRQVAAFLVEIDRQLEHHHHHH”: “failed”; “MQRLKTVFILFIAFLFFSCSGKTNEQAFFKELSKIDLQIAEGYQAKALKSLKRLQKKAVNSTNYVSIVKRQLKLNSIPDALISLQTGIKKIPDSPELSALLTSILIDSGKPAEALPYCEKLKDTPYASLGAEASILSDIALNSFNSDFSLLKAAYDKTENQVFLKNAAIVLAAKGRLREASNLRYNIPNDVAPEHPFFWSCIVYDLGVFDSIFGDLYFSLVYADKDGGEGKTAENARLHLMLAADAAYGQGDTERARAFWQAAADRSPEASPIVFYDLALTAPDEKERVDLLIECIDLYPDFYPVIARYVREDIALRELNSQDELSAYLESKGFYSIKMEETYFTSPKMTYKPEDLLARAMKNPNFDQRFILEEFRYNQITDKTYASKARGKADMWKILEKYGKESIIREYAKWYFAQSGDFNACLSVSEIGKRYEDSFYAGINSALSGDFENAVSSFAASAQVSAYAYASTVNSAYMYYMSGKTSEAVDTYSLAASMTQDKKRQSMLHYEIASIFYERKAYDRAISVLGYALELNPKNYQAASLLKKLKEFN”: “failed”; “MQRLQHYYQCFLAQLKNFDGIPALLLRLYLAPVFIMAGFSKTQMLNEEVTGFSAIMADPNIIAWFGNSDWGLGLPFPALLANLVILVEFFGGWFLLFGALTRLISIPLMFTMIVAATSVHADNGWFAITPTNSDISPAKVAVWLGIDSAQASLDNSEQTATRLEKMRELIEENGNTDWLYENGNIVVLNNGIEFSTTYFIMLLSLFFIGAGRYTSVDHFVAKRFLIEEKRFS”: “failed”.
Next, “MQRLSTEFSMNHPVRRSPIASFFVGLWDVMNFTRRLIFNLVFFGFLFMLLLVFVVALARGDGTKPLAERTTLVINPEGTLVEQFSADPVSRSLAKAVGDKSAQEVQLRDLVRVIEAAGKDRKIERVLLNLDKFQPSGFASQREVAAALQKLRASGKQIVAFSESMSQGQYLLAAQANEVYLDPMGSVLLEGLGRYRQYFREGLQDKLGVDVHLFRVGEYKSAAEPYILDAASADAKEADLFWMNDVWQRYLADVVTARKLSPAQLTAGIDTLPEGVAAAGGDLAKFALQQKLVDGLKTREEVDALLVKRGVADSDAESGFRNIGFNDYLSQLQAQDSPMDSRPQVAVVVATGEISGGEQPAGRIGGESTAALLRQARDDEKVKAVVLRVDSPGGEVFASEQIRREVVALKQAGKPVVVSMGDLAASGGYWISMNADRIYADPSTISGSIGIFGMVPNLTRALDKIGVHTDGVGTTRFAGAFDITRPLDPAAGQVIQAVINKGYADFTGKVAQARHQSVDAIDKVARGRVWSGAQAKERGLVDAFGGMSEAVADAADRAKLSRGKFRVRYVEKPATPFSQFMNGFAGSRMGAWMLSDSGMARALVARALPEVDTQLRFVESAVHDSKAGGTPVKSLAYCFCGF”: “failed”; “MQRQNKQQEDSFMIPETSYDIVVVGAGPAGSTAALYAAKKGASVLLLDKKREIGSPIQCAGFLPDASEVKALLPEADLPGALKNYPDSCVLQPIRTQRIIPPNCNAKEFAVKGAVLDRRRYDQYLAEQAAEAGAELMVKTRVTKIQGTTVETSGIFGKHTIRAKAIIGADGPNSLVAKSRGLIMKPEARETSVAIEYQVRNVDIDPDALEMYFGKDYVPGGYAWVFPEGKDRANVGIGIRSCMAEKGVSAKEYLHRFIKKHPVAGPKLKNAVIMNVIAGIIPVNGAPANTATADSLVVGDAAGHIIATNGGGIPPAMIAGKIAGETAAEFAAGKCDLEEYDRRWRAQFGQALETSVQARQIMDGIMKSDALMNAAFRFISPEQMKVMQCGKLPGPVKLGLQALSRGKK”: “failed”; “MQSFFDREFTFDRTARLFFIILLVGGIMAIVIGLRGILIPFCLSWILAYVLMPLVRFVQYRLHFRFRFLSVITVLVFISALIFFAILSLVPAVEEEVSKTITLLQQYRIDENLLQMLPAPIRKFLSESGSMNDLFKGISYEKLMENSKEIFGQLNKLVSGTISLFSYTTIFFIGVLYFIFILFDFEKLGKGFVNLFPVGHRIRVRSILKEVDKNMNSYFRGQALIALCVGILLSIGYKIIDFPLGVTLGLFIGMLNLIPYLQIVGLIPIVFLSVLKAAQTGQNFFVVLALGIGVMMIVQVIQDTILTPNIMGKRMGMSPAMILLSISIWGSLLGFFGLFIALPLTMSLYSVYKRYVIQDPKFIREENEETMPKKGLFRKHSRKEEK”: “failed”.
“MQSILKPITNLFTMIFQAIHGFVASLDIFGVGAGYVITIFLLTLLVRLILLPLNIKQTRSQQKMQEIQPEIAKLQKKYKNNPEKAQQEMMKLYKENNVNPMSGCLPLLIQMPILFALYYVFTGLTELQGVSFLWLGDLWAPDRTFILPILSAATTYLSSLLMTKFTQSQAGGAPGGMNMNTMNIVMAGMMGVMSIQFPSMLVLYWVIGNLIQMVQTYFIVVLPSRKRAKEKEQYKDIK”: the protein production result is reported as “failed”.
Next, “MQSIRSILVVIDPTPGESLALKRAKLIAGVTQAHLHLLVCDRKHEHSALLSVLKSSLTGEGYSVTTEQAWNESLHETIIDVQQAEGCGLVIKQHLPDAPLKKALLTPADWKLLRYCPTPVLLVKTATPWVGGVVMAAIDVGNMDGEHRALHASIVDHGFDIASLAKAQLHVISAHPSPMLSAADPVFQLKETIEARYREQCKAFQAEFDIDDAHLHIEEGPADVLIPHLAHKLGAVLTIIGTVARTGISGALIGNTAEVVLDSLDSDVLVLKPADIMDHLEELAAKA”: “not failed”; “MQSRFRSDRRLTVRMGVTLFLLGLLYVGFVAALIALLKSWVLVVVIVALVFGAQYWFSDRIALFAMRGRVVEREEYPELHGVVDRLAAMADMPKPVVAVSEMEMPNAFATGRNPDNAVVCVTTGLLRRLEPAELEGVLAHELSHVAHKDVAVITVASFLGVIAGLIVRFAFYSQLFGGRRDQNTLAVLAVVMGVSAAVYALSFLLIRALSRYRELAADRAAALLTGRPSALAAALTKVTGDIARIPTKDLRTAQAFNAFYFTPAFGSDPGLGRFFATHPSLEQRLDQLGRISTELGEAPAPGKA”: “failed”.
As to “MQSRSKSDMKPIRKEILNPGNAYIELTPGTRRLTPHDIGLFQVKFHFQTRRAGDSRIIDDSRKMEKPMELVLGKKFKLEVWELIVQQMSLNEVAKFTVHKSLCAQYPFISKTLRDIGKKPEERRHCCGMTLQNEGIGYTDLDELLQNPSDLEFIIELFSIELPEQYEKERWQMSDDEKMLATSTLRERGNNFYKASRFTEAETCYREAVGIVEQLMLKEKPHDEEWQELAAIKTPLLLNYAQCRLIAGDFYAVIEHCNEVLTLDPRNVKALFRRAKAHAGAWNPAQARRDFLDALALDASLKSTVSKELKSIEDQQQARNVQDRIHMQKLF”, the protein production entry was “failed”.
Next, “MQSVSSMSSMDHFWLVIFCACVAFIPRFFPLLFFTKRKIPKWFNEWMRFVPVSLFTALVVKSVFIDSKYAVITSGNLGMIISAILVGFVAYRTRSMTLSVVIGLVSVMIFVLLIHI”: “failed”; “MQSVWFYMGKSFKIHCLTYIIFILQWLIFLSCKKHYKGEKVDRKAGVILFWHGKLALMPFAFRHYRQKNKKAYVMISHHKDGEQIAKIIKLFGLDTVRGSTSRGASSALRAAFKVLEQNDDIVITPDGPRGPYHSISDGSIILAQKKELKIRILNYEANRFWKFKSWDKMILPKPFSKITYSLSEPLDILSLDKEKAKEFLMKQFDKISLADQFKE”: “failed”; “MQTACQAVQHQRGRRQYNKLRNLLKDARHDCILFANEFQQCCYLPRERGESMEKWQTRSIYNAAVWYYHHCQDRMPIVMVTEDEEAIQQYGSETEGVFVITFKNYLDNFWPDLKAAHELCDSILQSRRERENESQESHGKEYPEHLPLEVLEAGIKSGRYIQGILNVNKHRAQIEAFVRLQGASSKDSDLVSDILIHGMKARNRSIHGDVVVVELLPKNEWKGRTVALCENDCDDKASGESPSEPMPTGRVVGILQKNWRDYVVTFPSKEEVQSQGKNAQKILVTPWDYRIPKIRISTQQAETLQDFRVVVRIDSWESTSVYPNGHFVRVLGRIGDLEGEIATILVENSISVIPFSEAQMCEMPVNTPESPWKVSPEEEQKRKDLRKSHLVFSIDPKGCEDVDDTLSVRTLNNGNLELGVHIADVTHFVAPNSYIDIEARTRATTYYLADRRYDMLPSVLSADLCSLLGGVDRYAVSIMWELDKASYEIKKVWYGRTIIRSAYKLFYEAAQELLDGNLSVVDDIPEFKDLDEKSRQAKLEELVWAIGKLTDIARHVRAKRDGCGALELEGVEVCVQLDDKKNIHDLIPKQPLEVHETVAECMILANHWVAKKIWESFPHQALLRQHPPPHQEFFSELRECAKAKGFFIDTRSNKTLADSLDNANDPHDPIVNRLLRSMATQAMSNALYFSTGSCAEEEFHHYGLALDKYTHFTSPIRRYSDIVVHRLLMAAISKDKKMEIKGNLFSNKDLEELCRHINNRNQAAQHSQKQSTELFQCMYFKDKDPATEERCISDGVIYSIRTNGVLLFIPRFGIKGAAYLKNKDGLVISCGPDSCSEWKPGSLQRFQNKITSTTTDGESVTFHLFDHVTVRISIQASRCHSDTIRLEIISNKPYKIPNTELIHQSSPLLKSELVKEVTKSVEEAQLAQEVKVNIIQEEYQEYRQTKGRSLYTLLEEIRDLALLDVSNNYGI”: “failed”.
Take “MQTESNPLAERFIARNLLDLAIRITLIGGLTVWCYRVAEPFIGMLLWSIILAVTLAPLHMRLTRLLGARPRLAAVVLTLATMLVLLVPGAMLTASLGDSLVNIFHHSTGRIVRIPAPPDFVIELPLIGVRLHEIWLQAMTNLQDVLKPLQPHLATAGRWLLAGMASAGLGIAVFLASIAIAGVILVYADPAKRAAHAIGVRIAGPEQGVALAQLTAATIRAVAQGVIGVALIQAVLAGLGFLLAGVPAAGLWAIVALLICIVQLPLFLLMVPMVVYVFLNNTPTVAAVFAVWCLLVSLCDNVLKPLMLARGVDIPIPVILIGALGGVLAAGIVGLFLGSVGFGLGYVLFMQWVRQQSPAG”: the protein production entry is listed as “failed”.
Next, “MQTFAPGTRVYHLIIIVFFFFFCLSSFFASIVMADEYTGEATGSSEAKVHIIYTEKPTDEEPKTYHLRTLSSALGSEEAAKDALIYSYKEAASGFSAKLTPEQVAEISKQPGVIQVVPSQTYQLHKPGGGGGFKLT”: “failed”.
